Test results from patent publication US20120003694A1 (SYRACUSE UNIVERSITY, published 2012).
Read-outs that look alike come from different tables or passages of the source.

B1: FhuA ΔC/Δ4L protein nanopore (engineered Escherichia coli ferric hydroxamate uptake component A lacking the cork domain and loops L3, L4, L5 and L11) (other)
chain: LKEVQFKAGTDSLFQTGFDFSDSLDDDGVYSYRLTGLARSANAQQKGSEEQRYAIAPAFTWRPDDKTNFTFLSYFQNEPETGNSEGSTYSRNEKMVGYSFDHEFNDTFTVRQNLRFAENKTSQNSVYGYGVNSEGSYLARKYVVDDEKLQNFSVDTQLQSKFATGDIDHTLLTGVDFMRMRNDINAWFGYNSEGSGPYRILNKQKQTGVYVQDQAQWDKVLVTLGGRYDWADQESLNRVAGTTDKRDDKQFTWRGGVNYLFDNGVTPYFSYSESFEPSSQVGKDGNIFAPSKGKQYEVGVKYVPEDRPIVVTGAVYNLTKTNNLMADPEGSFFSVEGGEIRARGVEIEAKAALSASVNVVGSYTYTDAEYTTDTTYKGNTPAQVPKHMASLWADYTFFDGPLSGLTLGTGGRYTGSSYGDPANSFKVGSYTVVDALVRYDLARVGMAGSNVALHVNNSEGSQVVATATFRF
B4: pb2(35)-Ba (barnase fused to the first 35 amino acids of the N-terminal region of pre-cytochrome b2) (other)
chain: MLKYKPLLKISKNCEAAILRASKTRLNTIRAYGSTAQVINTFDGVADYLQTYHKLPDNYITKSEAQALGWVASKGNLADVAPGKSIGGDIFSNREGKLPGKSGRTWREADINYTSGFRNSDRILYSSDWLIYKTTDHYQTFTKIR
notes: range 1-35;domain: folded ribonuclease barnase (Ba), 110-residue; also called pb2(35)-Ba/35

How the values were obtained:
[1] = molecular target: T1, HIV-1 nucleocapsid protein (NCp7) (HIV-1, UniProt P04591 378-432); assay: single-channel electrical recording, planar lipid bilayer, analyte added trans, 1 M KCl, 10 mM potassium phosphate, pH 7.4
T1 construct: domain: nucleocapsid protein (NCp7), 55 amino acids; also called NCp7/55

[2] = molecular target: B4; assay: as above
[3] = molecular target: B4
[4] = molecular target: B1; assay: single-channel recording at a higher applied voltage (+100 mV)
[5] = molecular target: B1; assay: single-channel recording at a higher applied voltage (+120 mV)

Binder B1 has a koff [1] of 9000 s⁻¹, a kon [1] of 2e+06 M⁻¹ s⁻¹ and a kon [2] of 180000 M⁻¹ s⁻¹. It also gave a kon [3] of 110000 M⁻¹ s⁻¹.

B2: pb2(65)-Ba (barnase fused to the first 65 amino acids of the N-terminal region of pre-cytochrome b2) (other)
chain: MLKYKPLLKISKNCEAAILRASKTRLNTIRAYGSTVPKSKSFEQDSRKRTQSWTALRVGAILAATAQVINTFDGVADYLQTYHKLPDNYITKSEAQALGWVASKGNLADVAPGKSIGGDIFSNREGKLPGKSGRTWREADINYTSGFRNSDRILYSSDWLIYKTTDHYQTFTKIR
notes: range 1-65;domain: folded ribonuclease barnase (Ba), 110-residue
With B2 the “partition time at +100 mV” value [4] was ~4 ms and the “partition time at +120 mV” value [5] was ~12 ms.

B3: pb2(95)-Ba (barnase fused to the first 95 amino acids of the N-terminal region of pre-cytochrome b2) (other)
chain: MLKYKPLLKISKNCEAAILRASKTRLNTIRAYGSTVPKSKSFEQDSRKRTQSWTALRVGAILAATSSVAYLNWHNGQIDNEPKLDMNKQKISPAEAQVINTFDGVADYLQTYHKLPDNYITKSEAQALGWVASKGNLADVAPGKSIGGDIFSNREGKLPGKSGRTWREADINYTSGFRNSDRILYSSDWLIYKTTDHYQTFTKIR
notes: range 1-95;domain: folded ribonuclease barnase (Ba), 110-residue
For B3, the “partition time at +100 mV” value [4] was ~4 ms and the “partition time at +120 mV” value [5] was ~12 ms.

B4 was tested, and the “partition time at +100 mV” value [4] was ~4 ms and the “partition time at +120 mV” value [5] was ~12 ms.
